Experimental data reported in patent EP4545563A1, “ANTIBODIES TARGETING ITGA2 AND ANTIBODY-DRUG […]” (Foreseen Technology (Beijing) Co., Ltd., priority 2022, dated 2024).

Biological target: ITGA2 protein on the surface of human tumor cells (HuCCT1, A431) (human) (UniProt P17301)
Test: cell-based or functional assay

Chain of ITGA2 protein on the surface of human tumor cells (HuCCT1, A431) (human) (P17301 30-1181): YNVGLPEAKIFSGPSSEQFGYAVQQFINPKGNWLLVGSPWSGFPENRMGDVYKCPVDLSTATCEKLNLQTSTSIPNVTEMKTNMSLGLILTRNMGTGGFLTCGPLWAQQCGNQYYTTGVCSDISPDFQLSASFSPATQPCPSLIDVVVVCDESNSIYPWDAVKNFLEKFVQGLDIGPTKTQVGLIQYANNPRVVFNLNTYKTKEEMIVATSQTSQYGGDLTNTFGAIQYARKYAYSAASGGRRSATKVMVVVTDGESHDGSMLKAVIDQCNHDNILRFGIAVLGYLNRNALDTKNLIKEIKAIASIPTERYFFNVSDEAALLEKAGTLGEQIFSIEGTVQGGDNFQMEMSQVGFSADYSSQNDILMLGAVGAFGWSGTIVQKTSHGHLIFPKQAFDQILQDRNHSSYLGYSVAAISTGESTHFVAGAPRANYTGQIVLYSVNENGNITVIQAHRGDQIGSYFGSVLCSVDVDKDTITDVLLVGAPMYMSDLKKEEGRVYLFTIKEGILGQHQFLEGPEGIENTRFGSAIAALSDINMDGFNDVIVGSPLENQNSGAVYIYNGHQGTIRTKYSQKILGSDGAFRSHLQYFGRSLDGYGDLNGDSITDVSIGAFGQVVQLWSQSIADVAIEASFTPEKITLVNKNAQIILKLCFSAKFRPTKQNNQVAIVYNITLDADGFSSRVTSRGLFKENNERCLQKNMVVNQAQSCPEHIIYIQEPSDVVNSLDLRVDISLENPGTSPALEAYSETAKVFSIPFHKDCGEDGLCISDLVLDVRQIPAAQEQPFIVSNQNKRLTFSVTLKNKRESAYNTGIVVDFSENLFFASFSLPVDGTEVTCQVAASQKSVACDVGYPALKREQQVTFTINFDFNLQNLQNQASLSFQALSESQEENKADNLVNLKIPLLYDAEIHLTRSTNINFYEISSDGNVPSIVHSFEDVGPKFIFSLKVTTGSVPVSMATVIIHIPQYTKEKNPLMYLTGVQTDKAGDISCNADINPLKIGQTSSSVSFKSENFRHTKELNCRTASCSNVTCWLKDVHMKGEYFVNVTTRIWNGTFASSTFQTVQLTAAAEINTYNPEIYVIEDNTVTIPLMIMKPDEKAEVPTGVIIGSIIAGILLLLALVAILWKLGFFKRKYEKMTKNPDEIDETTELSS

Vatelizumab-ve-MMAE (antibody)
A431 cell killing IC50: 0.08 nM
HuCC-T1 cell killing IC50: 0.89 nM
